Target: HDM-2 in the cancer cell membrane (human, UniProt Q00987 1-491)
Assay: cell-based or functional assay

Sequence of HDM-2 in the cancer cell membrane (Q00987 whole entry): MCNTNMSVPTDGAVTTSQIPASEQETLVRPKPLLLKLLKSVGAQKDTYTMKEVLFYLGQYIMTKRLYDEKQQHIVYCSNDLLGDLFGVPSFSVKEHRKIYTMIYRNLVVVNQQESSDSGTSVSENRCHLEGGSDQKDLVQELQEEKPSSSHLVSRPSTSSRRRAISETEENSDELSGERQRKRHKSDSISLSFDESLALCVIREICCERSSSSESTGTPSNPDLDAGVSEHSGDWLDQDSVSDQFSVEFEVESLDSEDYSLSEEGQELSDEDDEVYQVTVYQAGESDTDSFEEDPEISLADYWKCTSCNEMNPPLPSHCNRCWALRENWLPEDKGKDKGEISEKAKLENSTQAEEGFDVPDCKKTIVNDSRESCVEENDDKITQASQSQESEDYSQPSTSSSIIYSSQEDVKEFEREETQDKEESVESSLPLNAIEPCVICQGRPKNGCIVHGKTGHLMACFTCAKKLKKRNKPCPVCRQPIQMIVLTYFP

Question: PPLSQETFSDLWKLLKKWKMRRNQFWVKVQRG [PNC-27 (p53 aa12-26-MRP)] was tested. Which “IC50 (dose of PNC-27 on cancer cells)” value did it give?
Answer: 125 µg/mL
